Measurements published in patent US20250333501A1 (University of California, published 2025).

Assays:
[1] = target: T1, CLDN6 endogenously expressed by human cancer cell lines (ARK2, OVCA429) (human, UniProt P56747 1-220); experiment: FACS, 1.5 µg Ab, OVCA429 cells
T1 construct: Untagged endogenous protein; also called Endogenous CLDN6+
T1 sequence: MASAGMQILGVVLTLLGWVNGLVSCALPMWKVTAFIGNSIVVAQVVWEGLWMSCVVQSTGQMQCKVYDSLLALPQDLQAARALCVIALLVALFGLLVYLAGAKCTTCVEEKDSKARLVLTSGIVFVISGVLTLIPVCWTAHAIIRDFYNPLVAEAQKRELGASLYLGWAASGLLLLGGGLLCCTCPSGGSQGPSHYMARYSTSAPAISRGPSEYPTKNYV

[2] = target: T1, CLDN6 endogenously expressed by human …; experiment: FACS, 1.5 µg Ab, ARK2 cells
Method: (§1) FACS assays were also carried out to determine relative antigen binding strengths of the humanized antibodies (at either 1.5 μg or 0.3 μg) for binding to CLDN6 as expressed by the indicated cancer cell lines. 2nd Ab only was used as a negative control.

[3] = target: T2, human CLDN6 fused to GFP, expressed on engineered HEK293T cells (HEK293T-CLDN6-mGFP) (human, UniProt P56747 1-220); experiment: FACS, 0.3 µg Ab, 293T clone with human CLDN6
T2 construct: It calls residues 1-21 a signal peptide; also called Claudin-6; HEK293T-CLDN6-mGFP Artificial CLDN6+; not shown: mGFP tag
T2 sequence: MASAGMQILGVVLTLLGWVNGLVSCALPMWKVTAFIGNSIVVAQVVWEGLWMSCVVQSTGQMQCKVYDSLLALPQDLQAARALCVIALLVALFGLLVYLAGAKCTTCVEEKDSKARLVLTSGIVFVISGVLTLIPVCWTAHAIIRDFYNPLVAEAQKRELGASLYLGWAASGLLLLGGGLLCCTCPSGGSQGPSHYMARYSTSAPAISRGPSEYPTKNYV
Summary of the method: (§2)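 Engineered 293T clones expressing human CLDN6 were detached with EDTA and incubated with Alexa Fluor 647 NHS ester-labelled humanized antibody, at 0.3 µg or 1.5 µg, for 30 min on ice in the dark. After washing, the cells were read by flow cytometry on a BD Accuri C6 in channel FL4H. Fluorescence in this direct-binding assay reflects relative antigen binding strength.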

[4] = target: T1, CLDN6 endogenously expressed by human …; experiment: FACS, 0.3 µg Ab, ARK2 cells
Method: as §1

[5] = target: T2, human CLDN6 fused to GFP, expressed on …; experiment: FACS, 1.5 µg Ab, 293T clone with human CLDN6
Summary of the method: as §2

B1: AB9-chim (antibody, V domains shown)
VH: EVQLQQSGPELVKPGASVKMSCKASGYRFTDYNMHWVKQSHGKSLEWIGYINPNNGGTNYNQNFKGKATLTVNKSSSTAYMELRSLTSEDSAAYYCARDYLYFFDCWGQGTTLTVSS
VL: DIQMTQSPASQSASLGESVTITCLASQTIGTWLAWYQQKPGKSPQLLIYAAASLADGVPSRFSGSGSGTRFSFKISSLQAEDFVSYYCQQLYSIPRTFGGGTKLEIK
notes: 'chim' is the pre-humanized form (parental variable regions); also called pre-humanized (chimeric) form of AB9
[1]
  FACS fluorescence: 3570
[2]
  FACS fluorescence: 4490
[3]
  FACS fluorescence: 46700
[4]
  FACS fluorescence: 3510
[5]
  FACS fluorescence: 72000

B2: AB18-chim (antibody, V domains shown)
VH: QVQLKQSGPELEKPGASVKISCKASGYSFTGYNMNWVKQSNGKSLEWIGNIDPYYGGSTYNQKFTGKATLTVDKSSSTAYMQLKSLTSEDSAVYYCARERSGYVFSAMDYWGQGTSVTVSS
VL: NIMMTQSPSSLAVSAGEKVTMSCKSSQSVLFSSNQKNYLAWYQQKPGQSPRLLIYWASTRESGVPDRFTGSGSGTDFTLTISNVQAEDLAVYYCHQYLSSRTFGAGTKLELK
notes: 'chim' is the pre-humanized form (parental variable regions); also called pre-humanized (chimeric) form of AB18
[1]
  FACS fluorescence: 25500
[2]
  FACS fluorescence: 9150
[3]
  FACS fluorescence: 73800
[4]
  FACS fluorescence: 3440
[5]
  FACS fluorescence: 135000

B3: AB18-3 (antibody, V domains shown)
VH: QVQLVQSGAEVKKPGASVKVSCKASGYSFTGYNMNWVRQAPGQGLEWMGNIDPYYGGSTYAQKFQGRVTMTVDTSTSTVYMELSSLRSEDTAVYYCARERSGYVFSAMDYWGQGTLVTVSS
VL: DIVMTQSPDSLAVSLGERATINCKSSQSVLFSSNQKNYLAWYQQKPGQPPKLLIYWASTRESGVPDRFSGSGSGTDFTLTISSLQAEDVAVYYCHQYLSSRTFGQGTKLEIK
notes: Humanized; also called Humanized AB 18-3
[1]
  FACS fluorescence: 2700
[2]
  FACS fluorescence: 1210
[3]
  FACS fluorescence: 30400
[4]
  FACS fluorescence: 1080
[5]
  FACS fluorescence: 58900

B4: AB18-5 (antibody, V domains shown)
VH: QVQLVQSGAEVKKPGASVKISCKASGYSFTGYNMNWVRQAPGQGLEWIGNIDPYYGGSTYAQKFQGRATLTVDTSTSTAYMELSSLRSEDTAVYYCARERSGYVFSAMDYWGQGTLVTVSS
VL: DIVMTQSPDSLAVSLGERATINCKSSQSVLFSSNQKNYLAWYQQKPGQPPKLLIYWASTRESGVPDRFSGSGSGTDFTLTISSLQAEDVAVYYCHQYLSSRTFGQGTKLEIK
notes: also called Humanized AB 18-5
[1]
  FACS fluorescence: 4270
[2]
  FACS fluorescence: 1330
[3]
  FACS fluorescence: 29400
[4]
  FACS fluorescence: 1310
[5]
  FACS fluorescence: 51900

B5: AB18-6 (antibody, V domains shown)
VH: QVQLVQSGAEVKKPGASVKISCKASGYSFTGYNMNWVRQAPGQGLEWIGNIDPYYGGSTYAQKFQGRATLTVDTSTSTAYMELSSLRSEDTAVYYCARERSGYVFSAMDYWGQGTLVTVSS
VL: DIVMTQSPDSLAVSLGERVTMNCKSSQSVLFSSNQKNYLAWYQQKPGQPPKLLIYWASTRESGVPDRFSGSGSGTDFTLTISSVQAEDVAVYYCHQYLSSRTFGQGTKLEIK
notes: also called Humanized AB 18-6
[1]
  FACS fluorescence: 6750
[2]
  FACS fluorescence: 1940
[3]
  FACS fluorescence: 26900
[4]
  FACS fluorescence: 1390
[5]
  FACS fluorescence: 58500

B6: AB18-4 (antibody, V domains shown)
VH: QVQLVQSGAEVKKPGASVKVSCKASGYSFTGYNMNWVRQAPGQGLEWMGNIDPYYGGSTYAQKFQGRVTMTVDTSTSTVYMELSSLRSEDTAVYYCARERSGYVFSAMDYWGQGTLVTVSS
VL: DIVMTQSPDSLAVSLGERVTMNCKSSQSVLFSSNQKNYLAWYQQKPGQPPKLLIYWASTRESGVPDRFSGSGSGTDFTLTISSVQAEDVAVYYCHQYLSSRTFGQGTKLEIK
notes: also called Humanized AB 18-4
[1]
  FACS fluorescence: 3220
[2]
  FACS fluorescence: 1380
[3]
  FACS fluorescence: 32400
[4]
  FACS fluorescence: 1130
[5]
  FACS fluorescence: 54400

B7: AB9-3 (antibody, V domains shown)
VH: QVQLVQSGAEVKKPGASVKMSCKASGYRFTDYNMHWVRQAPGQGLEWIGYINPNNGGTNYAQKFQGRATLTVDTSTSTAYMELSSLRSEDTAVYYCARDYLYFFDCWGQGTLLTVSS
VL: DIQMTQSPSSLSASVGDRVTITCLASQTIGTWLAWYQQKPGKAPKLLIYAAASLADGVPSRFSGSGSGTDFTFTISSLQPEDFVTYYCQQLYSIPRTFGQGTKLEIK
notes: also called Humanized AB 9-3
[1]
  FACS fluorescence: 1260
[2]
  FACS fluorescence: 1470
[3]
  FACS fluorescence: 9500
[4]
  FACS fluorescence: 1140
[5]
  FACS fluorescence: 24600

B8: AB9-4 (antibody, V domains shown)
VH: QVQLVQSGAEVKKPGASVKMSCKASGYRFTDYNMHWVRQAPGQGLEWIGYINPNNGGTNYAQKFQGRATLTVDTSTSTAYMELSSLRSEDTAVYYCARDYLYFFDCWGQGTLLTVSS
VL: DIQMTQSPSSLSASVGDRVTITCRASQTIGTWLAWYQQKPGKAPKLLIYAAASLADGVPSRFSGSGSGTDFTFTISSLQPEDFVTYYCQQLYSIPRTFGQGTKLEIK
notes: also called Humanized AB 9-4
[1]
  FACS fluorescence: 1110
[2]
  FACS fluorescence: 1550
[3]
  FACS fluorescence: 15300
[4]
  FACS fluorescence: 1120
[5]
  FACS fluorescence: 34300

B9: AB4-4 (antibody, V domains shown)
VH: QVQLVQSGAEVKKPGASVKMSCKASGYTFTSYTMHWIRQAPGQGLEWIGYINPSSTYTHYAQKFQGRATLTADTSTSTAYMELSSLRSEDTAVYYCSRGELGGFAYWGQGTLVTVSS
VL: DVVMTQSPLSLPVTLGQPASISCRSSQSLVHSDGNTYLNWYQQRPGQSPRLLIYKVSNRFSGVPDRFSGSGSGTDFTLKISRVEAEDVGVYYCSQSTHVPYTFGQGTKLEIK
notes: also called Humanized AB 4-4
[1]
  FACS fluorescence: 1200
[2]
  FACS fluorescence: 1400
[3]
  FACS fluorescence: 14100
[4]
  FACS fluorescence: 1050
[5]
  FACS fluorescence: 49000

B10: AB4-5 (antibody, V domains shown)
VH: QVQLVQSGAEVKKPGASVKMSCKASGYTFTSYTMHWIRQAPGQGQEWIGYINPSSTYTHYAQKFQGRATLTADTSTSTAYMELSSLRSEDTAVYYCSRGELGGFAYWGQGTLVTVSS
VL: DVVMTQSPLSLPVTLGQPASISCRSSQSLVHSDGNTYLNWYQQRPGQSPRLLIYKVSNRFSGVPDRFSGSGSGTDFTLKISRVEAEDVGVYYCSQSTHVPYTFGQGTKLEIK
notes: also called Humanized AB 4-5
[1]
  FACS fluorescence: 1350
[2]
  FACS fluorescence: 1200
[3]
  FACS fluorescence: 16800
[4]
  FACS fluorescence: 967
[5]
  FACS fluorescence: 43400

B11: AB4-3 (antibody, V domains shown)
VH: QVQLVQSGAEVKKPGASVKVSCKASGYTFTSYTMHWVRQAPGQGLEWMGYINPSSTYTHYAQKFQGRVTMTADTSTSTVYMELSSLRSEDTAVYYCSRGELGGFAYWGQGTLVTVSS
VL: DVVMTQSPLSLPVTLGQPASISCRSSQSLVHSDGNTYLNWYQQRPGQSPRLLIYKVSNRFSGVPDRFSGSGSGTDFTLKISRVEAEDVGVYYCSQSTHVPYTFGQGTKLEIK
notes: also called Humanized AB 4-3
[1]
  FACS fluorescence: 1160
[2]
  FACS fluorescence: 1520
[3]
  FACS fluorescence: 14300
[4]
  FACS fluorescence: 1190
[5]
  FACS fluorescence: 47800

B12: AB3-3 (antibody, V domains shown)
VH: EVQLLESGGGLVQPGGSMRLSCAASGFTFSNYWMNWVRQAPGKGLEWVAQIRLKSDNYATHYADSVKGRFTISRDDSKNTVYLQMNSLRAEDTGVYYCNDGPPSGCWGQGTLLTVSS
VL: DIQMTQSPSSLSASVGDRVTITCRISENIYSYLAWYQQKPGKAPKLLVYNAKILVEGVPSRFSGSGSGTDFTLTISSLQPEDFGTYYCQHHYTVPWTFGQGTKLEIK
notes: also called Humanized AB 3-3
[1]
  FACS fluorescence: 88700
[2]
  FACS fluorescence: 54900
[3]
  FACS fluorescence: 251000
[4]
  FACS fluorescence: 1160
[5]
  FACS fluorescence: 340000

B13: AB3-2 (antibody, V domains shown)
VH: EVQLLESGGGLVQPGGSMRLSCAASGFTFSNYWMNWVRQAPGKGLEWVAQIRLKSDNYATHYADSVKGRFTISRDDSKNTVYLQMNSLRAEDTGVYYCNDGPPSGCWGQGTLLTVSS
VL: DIQMTQSPSSLSASVGDRVTITCRISENIYSYLAWYQQKPGKAPKLLIYNAKILVEGVPSRFSGSGSGTDFTLTISSLQPEDFATYYCQHHYTVPWTFGQGTKLEIK
notes: also called Humanized AB 3-2
[1]
  FACS fluorescence: 85900
[2]
  FACS fluorescence: 33600
[3]
  FACS fluorescence: 309000
[4]
  FACS fluorescence: 14700
[5]
  FACS fluorescence: 396000

B14: AB3-4 (antibody, V domains shown)
VH: EVQLLESGGGLVQPGGSMRLSCAASGFTFSNYWMNWVRQAPGKGLEWVAQIRLKSDNYATHYADSVKGRFTISRDDSKNTVYLQMNSLRAEDTGVYYCNDGPPSGYWGQGTLLTVSS
VL: DIQMTQSPSSLSASVGDRVTITCRISENIYSYLAWYQQKPGKAPKLLIYNAKILVEGVPSRFSGSGSGTDFTLTISSLQPEDFATYYCQHHYTVPWTFGQGTKLEIK
notes: also called Humanized AB 3-4
[1]
  FACS fluorescence: 2960
[2]
  FACS fluorescence: 1460
[3]
  FACS fluorescence: 11600
[4]
  FACS fluorescence: 1320
[5]
  FACS fluorescence: 55800

B15: AB3-5 (antibody, V domains shown)
VH: EVQLLESGGGLVQPGGSMRLSCAASGFTFSNYWMNWVRQAPGKGLEWVAQIRLKSDNYATHYADSVKGRFTISRDDSKNTVYLQMNSLRAEDTGVYYCNDGPPSGYWGQGTLLTVSS
VL: DIQMTQSPSSLSASVGDRVTITCRISENIYSYLAWYQQKPGKAPKLLVYNAKILVEGVPSRFSGSGSGTDFTLTISSLQPEDFGTYYCQHHYTVPWTFGQGTKLEIK
notes: also called Humanized AB 3-5
[1]
  FACS fluorescence: 2950
[2]
  FACS fluorescence: 2910
[3]
  FACS fluorescence: 13300
[4]
  FACS fluorescence: 1280
[5]
  FACS fluorescence: 48600
